The results in this text go back to patent publication US6288042.

pIC50: −log10 of the molar value.

The target in the data set is HIV-1 integrase wild-type (IN1-288) (Human immunodeficiency virus 1) (UniProt P04585). As to the kind of experiment: inhibition. The note with it: I = deoxyinosine; PS at first and last linkage; 3'-processing column as printed; strand transfer column 0.070.

In general, pIC50 refers to −log10 of the IC50, conventionally taken in molar units. The sequence IGGIIGGIIGGIIGGI [T30721] showed a pIC50 of 7.06.
